Non-standard residues stand in square brackets, D forms with d. No end group written: not given here. *: point of attachment. Dmt = Cc1cc(O)cc(C)c1C[C@H](N)C(=O)O; Tic = O=C(O)[C@@H]1Cc2ccccc2CN1; NHBn = c1ccc(CN*)cc1
B1: EU-A178 (peptide)
peptide: H-[Dmt][Tic]FK(1'‑methyl β‑D‑glucuronyl)-NH2
B2: EU-A620 (peptide)
peptide: [Dmt][Tic]FK(1‑methyl β‑D‑glucuronyl)-NHBn
B3: EU-A639 (peptide)
peptide: [Dmt][Tic]F[dK](1‑methyl β‑D‑glucuronyl)-NHBn
B4: EU-A180 (peptide)
peptide: H-[Dmt][Tic]FK(1'‑octyl β‑D‑glucuronyl)-NH2

biological target: delta2 opioid receptor; assay: cell-based or functional assay

Row | Binder | DOP antagonist IC50 [nM]
1 | B1 | < 0.1
2 | B2 | < 0.1
3 | B3 | < 0.1
4 | B4 | < 0.1

biological target: mu opioid receptor; assay: cell-based or functional assay
Sequence (P35372 whole entry): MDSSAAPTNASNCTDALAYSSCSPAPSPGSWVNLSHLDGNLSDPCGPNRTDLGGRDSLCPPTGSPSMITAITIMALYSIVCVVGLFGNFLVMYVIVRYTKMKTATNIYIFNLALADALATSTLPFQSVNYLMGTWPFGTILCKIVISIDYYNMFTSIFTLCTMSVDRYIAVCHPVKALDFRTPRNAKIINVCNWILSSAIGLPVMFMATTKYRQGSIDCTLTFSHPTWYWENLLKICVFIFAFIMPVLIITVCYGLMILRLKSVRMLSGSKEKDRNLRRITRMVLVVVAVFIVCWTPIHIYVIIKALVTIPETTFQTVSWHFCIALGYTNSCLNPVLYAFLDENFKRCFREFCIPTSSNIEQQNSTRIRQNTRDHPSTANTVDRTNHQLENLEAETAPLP

Row | Binder | MOP agonist EC50 [nM]
5 | B2 | 480
6 | B3 | 280
7 | B4 | 36
